# Measurements from the DeepSol protein solubility set.
# Test: soluble on expression in E. coli; label from the status in PepcDB or PDB records
row,Sequence,soluble on expression in E. coli
1,GSEDLKKLEEEFDVRLGVYAIDTGADKEISYRENERFAYTSTFKPLAVGAVLQTKSDEELEETITYSEEDLVTYSPITEQHVDEGMTLVEIADAAIRYSDNTAGNLLLEAMGGPDELETILRDIGDETIEMDRYETELNEAKPGDIRDTSTAKAMATTLQQYVLEDVLDADRREVLTNMLINNTTGDALIRAGVPDGWTVGDKTGAGGYGTRNDIGIIWPEGDEEPIVIAIMSSRDEEDADYDDKLIEKATEIVLQELRN,soluble
2,MKFAVSSKGDQVSDTLKSKIQAYLLDFDMELDENEPEIVISVGGDGTLLYAFHRYSDRLDKTAFVGVHTGHLGFYADWVPHEIEKLVLAIAKTPYHTVEYPLLEVIVTYHENEREERYLALNECTIKSIEGSLVADVEIKGQLFETFRGDGLCLSTPSGSTAYNKALGGAIIHPSIRAIQLAEMASINNRVFRTVGSPLLLPSHHDCMIKPRNEVDFQVTIDHLTLLHKDVKSIRCQVASEKVRFARFRPFPFWKRVQDSFIGKGELEHHHHHH,soluble
3,MGSDKIHHHHHHMAGWRTVVVNTHSKLSYKNNHLIFKDSYQTEMIHLSEIDILIMETTDIVLSTMLIKRLVDENILVIFCDDKRLPTAMLMPYYARHDSSLQLSRQMSWIEDVKADVWTSIIAQKILNQSFYLGECSFFEKSQSIMNLYHDLEPFDPSNREGHAARIYFNTLFGNDFSREQDNPINAGLDYGYSLLLSMFAREVVKCGCMTQFGLKHANQFNQFNLASDIMEPFRPIVDRIIYENRQSDFVKMKRELFSMFSETYSYNGKEMYLSNIVSDYTKKVIKSLNSDGNGIPEFRI,not soluble
4,MSSPSGSSRTFPQYQSGSGWNAMLPKRTPRTAAPARRHFKSLVIGAGYTGLAAARRLAELQPQDQVLVVDATVAGEGSAGRNSGFLINLPHNTRMSGHHSPLEVARKQIAMLQSGLDWLAQLSGQGGFDCGWDLAGKYHAAATADGEQSLRGALQQYGQWGVAYSELDRDALQAQLGTRYYRFGYHSMNNVFVQPAALIRGLADSLPENVWLTEDNPVLSIDGSGPYKVRTRGGEFTADNVILANNAFARRLGFLRSRLVTIFTYAGVTPVLSPAQQALLGERDQWGVIPANRLGTTLRRISGGRFMVRSAYSYEAEQPLERMEQLLRDSFVRRYPDLAAHDFEYVWSGSTGLTGNGASFVGAIQPGLYASVGCNGAGVIKGTIYGKLLGEQVAGHRSAMLDDLASFEKPNWLPPEPLRRIGALSTIAYQARKAGLEKLEHHHHHH,soluble
5,GHWNQPWKCLVDHDGVFDNRMMGYATEELWFSEWENGGTPWENPAGYEQFNPVLHVDKWRVPMLVIHGQKDFRIPVEQGLAAFGALQRKGIESKLLYFHDENHWVLNPQNSIQWHDTVNAWLKKYIG,not soluble
6,SLDIKEIVGDYNSFLDTIFELLIKGGFKENELKELPIDHICYRVSTNEFYNEKKEQLNQLGELLVETEIGGRMISTFKLNKPIQYKDKSIPLIELPAPKKNRINYDGLEHIEMVINEPFQSFVDNHPSPIDENLKFNWVLHALNKDINPDVECEFIDPRIKNEIRTISVKFHHQSLEEVVKYEIQLLKENEG,soluble
7,MSLSLQQIDQIISILNKQSKPYDWVMQEFAKVEELKNFDLDLETFELLGLGLTLNKDNIFTLKTRTTKIKDEIFCIVDIESTGGVSKGEILEIGAVKIQNSKEIGRFQSFVKVKEIPKNITELTGITYEMVENASSLAKVLSDFRLFLKDSIFVAHNVRFDYSFISKALNECGFGILLNRRICTIEFAQCCIESPKYKLEVLKEFLGVENMHHRALDDALAAAEIFKYCLGKLPYHIKTTEELINFTKTARIKEGHHHHHH,soluble
8,MGSDKIHHHHHHMSLSPQASAAPEQGYNFAYLDEQTKRMIRRGLLKAVAIPGYQVPFGGREMPLPYGWGTGGMQVTAAILGADDVLKVIDQGADDTTNAVSIRRFFARTAGVATTERTPEATVIQTRHRIPETALSGEQIMVYQVPIPEPLRFIEPSEAETRTMHALDDYGVMHVKLYEDIATFGHIATSYAYPVTVDERYVMDPSPIPKFDNPKLDMNPALMLFGAGREKRLYAVPPFTRVASLDFEDHPFEVQRWEESCAFCGSHESYLDELIVDDRGGKRFVCSDTDYCTQRRARQEEGEDAQ,not soluble
9,MGSDKIHHHHHHMKIKAIITGATGMVGEGVMHECLLNPDVEEVLIINRKPSGFTHAKLKEIIHTDFFNLAPVEQQLAGYNACYFCLGVSSIGMNEADYTKMTYTLTMHVAETLSRLNKDMTFCYVSGASTDSTEKGKSMWARVKGKTENDLTRLPFKDVYNFRPGYMQPTPGLKNTQKYYTYMSWMYPFLKLVFKNYVSTLKDVGLAMIRVTLFGHNKQVLEVPDIKALAKKTQFV,not soluble
10,MRPGWIAADWGTSRLRVWAMGAEGVLAEARSDEGMGQIAVGGFEAALLRLIGLWLSDGPAVQVVICGMAGARQGWQEVPYRRLPCAPVDPQALVPVPSEDPRIAVRIVPGLAQAKPADVMRGEETQIAGALALLGSFDGVICLPGTHSKWAQVSAGEVVSFRSFLTGELFALLSERSVLRHGLAAEGWDDEAFLAAVSDGMSHPQKLGAKLFGLRAEALLQDLPPATARARLSGLLIGLELVGARSYWLGQPVVLVGEEALAARYGAALAAQGVQARLLPAAACTLGGLAAAVGQLTLASSGAGRKA,not soluble
11,MTENAQDKARQAVETVVKSPELVEQILSDEYVQIMIARCFHSGPLPPPSDLAQYNDIISNGADRIMAMAEKEQAVRHETIRQDQTFNRRGQ,not soluble
12,MTDSKYDYSDITPVDINTEEPQICQILYDEDYKQIMGLLLALMKAEEYSERALHITELGINELASHYTIWIYRFNILKNLPNRNLYDELDWCEEIALDNEKNYQIWNYRQLIIGQIMELNNNDFDPYREFDILEAMLSSDPKNHHVWSYRKWLVDTFDLHNDAKELSFVDKVIDTDLKNNSAWSHRFFLLFSKKHLATDNTIDEELNYVKDKIVKCPQNPSTWNYLLGIHERFDRSITQLEEFSLQFVDLEKDQVTSSFALETLAKIYTQQKKYNESRTVYDLLKSKYNPIRSNFWDYQISKLTSV,soluble
13,MLQHKILGLDVGSRTVGIAISDIMGWTAQGLDTLRINEENNELGIDQLVDIIKKHNVGTVVIGLPKNMNNSIGFRGEASLTYKEKLLEAYPSIEIVMWDERLSTMAAERSLLEADVSRQKRKQVIDKMAAVFILQGYLDSLHLEHHHHHH,soluble
14,MGSDKIHHHHHHMNELVSIITPCYNSAATIRETIRSVIAQSYVNWELLIIDDCSNDDSVKIIMEFMDTDSRIYYLKTEHPSGGPTLPRNVGIQAAKGRFIAFLDSDDIWLPNKLSTQLPLFINDNVAIVYSDYEKISEEGNRTGRIVKSDPYHHYKSLLCGNELGCLTVVYDTQKIGKRYFKFIGHEDYNLWLDILKEGFIAINTNICLALYRIRKGSVSSNKLRVIKWIWHIYRVEQKKTIWLSLYYSLSDLNKSLFKYLK,not soluble
15,MGSDKIHHHHHHMFPDGEISDVVVIGGGPAGAICALALARAGVDVKLMYWGGYAPGGIELVSGRGRHFIEQYCPDFFSEVVHGIEIHETASLWDTAEPVIFNAMFNPWGAGVAIERSLLDGALRNLASGAGGTIIPDAKVVDVERQHDRWRLIARSSEDASSNETTSRAGEFAIYARFIVLATGRVPLPFFDHAPVAESSQIALMTSLQARIAPRHTLYVEGTRNGWWYALPAEKGYFASFCIGRNELKQRQSRLKDFFFQELQCTRLLAPLSAGAFDQRPIAGRMAGATMFPAMGGDAWIAVGDATAAPDPLSGTGIEWAIESAQLGADMLLEALHGSKGNVLFDLPRYENTIRRRIAAQEKTAAYHYHRLKEIRET,not soluble
16,MRLEECNILFELLTEIQDEAGSMEKIVHKTLQRLSQLLAADRCSMFICRSRNGIPEVATRLLNVTPTSKFEDNLVNPDKETVFPLDIGIAGWVAHTKKFFNIPDVKKNNHFSDYLDKKTGYTTVNMMAIPITQGKEVLAVVMALNKLNASEFSKEDEEVFKKYLNFISLVLRLEHHHHHH,soluble
17,MGSDKIHHHHHHMLCAISGKVPRRPVLSPKSRTIFEKSLLEQYVKDTGNDPITNEPLSIEEIVEIVPSAQQASLTESTNSATLKANYSIPNLLTSLQNEWDAIMLENFKLRSTLDSLTKKLSTVMYERDAAKLVAAQLLMEKNEDSKDLPKSSQQAVAITREEFLQGLLQSSRDFVARGKLKAPKWPILKNLELLQAQNYSRNIKTFPYKELNKSMYYDKWVCMCRCEDGALHFTQLKDSKTITTITTPNPRTGGEHPAIISRGPCNRLLLLYPGNQITILDSKTNKVLREIEVDSANEIIYMYGHNEVNTEYFIWADNRGTIGFQSYEDDSQYIVHSAKSDVEYSSGVLHKDSLLLALYSPDGILDVYNLSSPDQASSRFPVDEEAKIKEVKFADNGYWMVVECDQTVVCFDLRKDVGTLAYPTYTIPEFKTGTVTYDIDDSGKNMIAYSNESNSLTIYKFDKKTKNWTKDEESALCLQSDTADFTDMDVVCGDGGIAAILKTNDSFNIVALTP,not soluble
18,MSSDDEIYNENNDLDEEFSDDMDQQSGSSGESQGKANYEILDPTALESDMSKTISEVQAILQVEPGICRILLHKFKWNKDRLLDKFYEHSDTTEFLAEAQVIPKTSSSEEAAGSSAPPPGGDAECDVCCSMTRLSGLACAHRACDECWKAYLTEKIVDVGQSEIECMMMDCKLLIEDEKVMSYITDPFVIAAYRKLIISSYVETNSQLKWCPGAGCGKAVKGEPSDREPAVCTCGERFCFACAQDWHDPLSCRHMKMWRKKCSDDSETLNWINANTKPCPKCSVTIEKNGGCNHMSCKSSSCRYEFCWLCLGDWKNHAQCNRYVEDDNKTDSRSLSRKNLQRYLFYYNRFMAHQNSMKLEGKLYAKVEVKMDLMQALSMSWIEVQFLRRAVDALCECRRTLKYAYAFAYYLEANNMTTLFETNQSDLELATEQLSGMLEGDLEDNDLAELKRKVQDKYRYVELRRKKMLDHCAEGVELDSWVFCE,not soluble
19,AMGSATISRRGILVIRHGERVDQVFGKSWLQQCTTADGKYYRPDLNFPRSLPRRSNGIKDFENDPPLSSCGIFQARLAGEALLDSGVRVTAVFASPALRCVQTAKHILEELKLEKKLKIRVEPGIFEWMKWEASKATLTFLTLEELKEANFNVDLDYRPALPRCSLMPAESYDQYVERCAVSMGQIINTCPQDMGITLIVSHSSALDSCTRPLLGLPPRECGDFAQLVRKIPSLGMCFCEENREDGKWDLVNPPVKTLTHGANSVFNWRNWIS,soluble
20,MAKKTSSKGKLPPGPTPLPIIGNMLQIDVKDICKSFTNFSKVYGPVFTVYFGMNPIVVFHGYEAVKEALIDNGEEFSGRGNSPISQRITKGLGIISSNGKRWKEIRRFSLTTLRNFGMGKRSIEDRVQEEAHCLVEELRKTKASPCDPTFILGCAPCNVICSVVFQKRFDYKDQNFLTLMKRFNENFRILNSPWIQVCNNFPLLIDCFPGTHNKVLKNVALTRSYIREKVKEHQASLDVNNPRDFIDCFLIKMEQEKDNQKSEFNIENLVGTVADLFVAGTETTSTTLRYGLLLLLKHPEVTAKVQEEIDHVIGRHRSPCMQDRSHMPYTDAVVHEIQRYSDLVPTGVPHAVTTDTKFRNYLIPKGTTIMALLTSVLHDDKEFPNPNIFDPGHFLDKNGNFKKSDYFMPFSAGKRICAGEGLARMELFLFLTTILQNFNLKSVDDLKNLNTTAVTKGIVSLPPSYQICFIPVHHHH,soluble
